167 variants from the RNAGym collection of RNA variant scans (doi:10.1073/pnas.2313332121) can be followed below.

To fix the notation:
B1: TPR t1 (parent)
chain: GACCAAUCUGCCCUCAGAGCUCGAGAACAUCUUCGGAUGCAGAGGAGGCAGGCUUCGGUGGCGCGAUAGCGCCAACGUCCUCAACCUCCAAUGCAUCCCACCACAUGAUGAUGCCUGAAGAGCCUUGGUUUUUUG

The series covers variants of B1. Put plainly: polymerase ribozyme fitness, log enrichment relative to wild type (log ratio); higher = more active; in vitro selection for triplet polymerase activity. A digest of the protocol: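 One round of in vitro selection, in triplicate, was applied to PCR-built, transcribed mutant libraries of each subunit of a heterodimeric triplet polymerase ribozyme. The steps were annealing with a biotinylated primer, partner subunit and triplets, incubation frozen at −7 °C, gel excision of extended constructs, streptavidin-bead capture and RT-PCR. Fitness is the logarithm, base 2, of genotype enrichment over wild-type enrichment from inverse-variance-weighted replicate averages of Illumina-sequenced inputs and outputs, keeping genotypes with ≥10 input reads and ≥1 read per output.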
As for C72G C85U, the “polymerase ribozyme fitness (log ratio)” value was -1.45.

Regarding G71A A84G C102A C115G, the “polymerase ribozyme fitness (log ratio)” value is -6.59. Under G71U G77C C89U G128C stands -4.14. Turning to G71U G93U C104U A119G, the “polymerase ribozyme fitness (log ratio)” value stood at 0.516. Take C70U C101G: the “polymerase ribozyme fitness (log ratio)” value was -2.81. Consider C70U C101U, for which the “polymerase ribozyme fitness (log ratio)” value was -0.854. Under G71C C82G U109A C115A A118U C123A stands -6.35. Under C72G A83U A90G C114G stands -3.25; under C72A U96A A108G G122U U129C, -3.93; under G71U C123A, 1.94.

For the variant G71U C123G, the “polymerase ribozyme fitness (log ratio)” value amounted to 0.824. Under G71U C123U stands 0.812; under C70U U112A U116A, -1.48. Under C70U U78C A105U G120C U130A stands -3.59; under G71U A121C, 1.43; under C70U G77U C94A U116C A121C, -2.35. Under C72G C73U G93C A111C G122U G135A stands -4.92. C72G A91C A95C A121G G128C U133G: the “polymerase ribozyme fitness (log ratio)” value was -3.31. Under G71U A84G G120A U130G stands -1.33; under G71A C79U C123U, 1.66; under G71A G135A, -1.21.

C70U U109C: the “polymerase ribozyme fitness (log ratio)” value is -3.68.

For the variant G71A C94A, the “polymerase ribozyme fitness (log ratio)” value is -2.86. Under G71U C94A stands -1.14; under G71U C94G, -1.13; under G71U C114G U132A, -2.34. Under C72G C86U U130C stands -0.236; under G71U C104A U126C, -3.21; under C72A U81A C86U U106A G128A U130A, -4.98. Consider C72G A90C C101U, for which the “polymerase ribozyme fitness (log ratio)” value is -1.47. Under G71A C99U U106C stands -5.44; under C70U U96C C99U C102U, -6.59; under C70U C102G, -6.87. Under C72A A111U stands -2.42; under C72A A111C, -0.314; under C70U U133G, -1.12. Under C72A C94A stands -0.415; under G71U C114U, -1.41. Take G71C C79U: the “polymerase ribozyme fitness (log ratio)” value turned out to be 0.303. Under G71C C82A A100U G120U stands -1.87; under C70U U106G C124U, -1.06.

Regarding C72G C73A A121G, the “polymerase ribozyme fitness (log ratio)” value stood at 0.168. Under G71A C72A stands -1.46; under G71A C72U, -1.32; under G71U C101U C115A, -0.712.

For G71U C73G, the “polymerase ribozyme fitness (log ratio)” value is -5.51. Under C72A C94G C102A C115U stands -5.19; under G71U C85G C88G C115A, -5.75; under G71A U81G A83U, -6.59. As to C72G C88A G113U G127C, the “polymerase ribozyme fitness (log ratio)” value was -5.08. G71C A121C C123U C124U: the “polymerase ribozyme fitness (log ratio)” value is -2.8. Consider C72A C114A, for which the “polymerase ribozyme fitness (log ratio)” value is -1.85. Under C72A G77C U92C G122A stands -3.67; under C70U U81A U116G U125A, -5.57; under C72A G120A U130G, -0.18. Under G71A C104A U129A stands -4.5; under C72A C76A, -1.85. As for G71C A100U G120U, the “polymerase ribozyme fitness (log ratio)” value was -1.67. Under C72A A100U U106C stands -0.411. With C72A G122A, the “polymerase ribozyme fitness (log ratio)” value is -0.72.

Take C72G C80A U81G C86A: the “polymerase ribozyme fitness (log ratio)” value was -6.59. Under G71A U92A C99G G120C stands -7.51; under C72A C80A A90G U125A, -3.65; under G71C C88U, -2.61. Under G71A U78C C114G stands -5.04; under G71A U78C C123U U131A, -0.879. Under C72A C115A G135A stands -0.346.

As to C72A C82G U112G G117A U126C U129G, the “polymerase ribozyme fitness (log ratio)” value is -5.85. Under C72A A91G U92G G113C stands -2.41; under G71A C79A C85U, -2.89. G71C A118U: the “polymerase ribozyme fitness (log ratio)” value was -0.826. Under C72A C104G stands -7.39; under C70U U87G G120C, 1.04. Under C72A G77A stands -0.135. Under G71A U129A stands -1.76.

Take G71A U96G: the “polymerase ribozyme fitness (log ratio)” value was -1.35. Take C70U U132C: the “polymerase ribozyme fitness (log ratio)” value is -0.89. Under C72A A111G A121C stands 1.27. Under G71A C88A stands -0.898; under G71U A105U, -2.22. Under C72A U92A A121U U125G stands -1.7; under C70U U126C, -0.89.

On to C70U U126G, for which the “polymerase ribozyme fitness (log ratio)” value was -3.3.

With C72A U112A, the “polymerase ribozyme fitness (log ratio)” value was determined as 1.59. Under G71C G110C U126C stands -7.04; under C72A A90U C115U, -1.55; under G71A G107A C114U, -4.4.

With G71U U78A C80U C114G, the “polymerase ribozyme fitness (log ratio)” value is -2.44. Under G71A C86U stands 0.0346; under G71A C86A, -1.85; under C72G A111U, -3.82.

C72G A111G: the “polymerase ribozyme fitness (log ratio)” value was determined as 0.355.

In the case of C70U U87C C123G, the “polymerase ribozyme fitness (log ratio)” value was 2.6. Under G71C A100C stands -2.78; under G71C A84U C94U, -1.84. Turning to G71A C82G, the “polymerase ribozyme fitness (log ratio)” value was -2.5.

On to G71A C82U, for which the “polymerase ribozyme fitness (log ratio)” value was -0.155.

Regarding G71C C94U, the “polymerase ribozyme fitness (log ratio)” value is -3.04. Under C72G C86A U129C stands -2.2. Under G71C C85U C94U U132A stands -2.18; under C72A C101U C124A G135A, 2.37. Under G71U G117U stands -1.78. As for G71U A74U C104A G117A C124U, the “polymerase ribozyme fitness (log ratio)” value is -5.66. Take C72A C124U: the “polymerase ribozyme fitness (log ratio)” value worked out at 1.25. Under G71C U81A U109A stands -6.73. C72G C73U: the “polymerase ribozyme fitness (log ratio)” value was -0.887. C70U U81A: the “polymerase ribozyme fitness (log ratio)” value was -3.3. On to C72A C76G U112G A119G, for which the “polymerase ribozyme fitness (log ratio)” value is -0.512. For the variant G71A A91G, the “polymerase ribozyme fitness (log ratio)” value is -2.18. Under C72A U81C stands -0.634; under C72A C102A U129A, -2.3. Under C72A G117A U126A stands -1.78. Under G71C C114A G127U stands -5.17.

G71A C99U C115A U129C G135U: the “polymerase ribozyme fitness (log ratio)” value was -5.53.

For the variant C72G A100U G113U C124U, the “polymerase ribozyme fitness (log ratio)” value is -4.64. On to C70U G128U, for which the “polymerase ribozyme fitness (log ratio)” value is -1.82. Under C70U U78A stands -1.17; under C70U U92A, -4.11. For the variant C72A C102U C123A C124G, the “polymerase ribozyme fitness (log ratio)” value came to 0.156. Under G71A G113A stands -1.22; under G71A G113U, -3.89.

With G71A C115U, the “polymerase ribozyme fitness (log ratio)” value is -1.95.

For the variant G71A C115A, the “polymerase ribozyme fitness (log ratio)” value was -2.31.

In the case of G71C A95U A111G C123U, the “polymerase ribozyme fitness (log ratio)” value is -3.04. Under C70U C114G stands -3.48; under G71A C80U, -2.57. Under C72A U81A C94U C114A stands -2.21. Turning to G71U U112G, the “polymerase ribozyme fitness (log ratio)” value was -0.608.

Take C72G A84C: the “polymerase ribozyme fitness (log ratio)” value is -0.56. For G71A U125A, the “polymerase ribozyme fitness (log ratio)” value is -0.783. Under C72G A121U stands 0.731; under C72G A121G, 0.881. Under C70U C104A stands -2.32. Under C72A A95C stands -0.926; under C72A C102A U125G, -2.01; under C72G C85U C102U C104A A105G, -7.34.

For the variant G71A A84U, the “polymerase ribozyme fitness (log ratio)” value was -1.02. Under C70U U87G stands -0.364; under G71C C123G, 0.627; under G71A A111G G120U, -2.5. In the case of G71A G77U, the “polymerase ribozyme fitness (log ratio)” value was -1.13.

Regarding G71U G77C C86U, the “polymerase ribozyme fitness (log ratio)” value is -2.09.

Turning to C72G C86U A111U C115A, the “polymerase ribozyme fitness (log ratio)” value was -4.83.

In the case of C72G C88U, the “polymerase ribozyme fitness (log ratio)” value is -0.692. Under C70U U87A C97U U112A C115U G127A stands -4.04; under G71C G135C, -1.39.

As for G71U U109A, the “polymerase ribozyme fitness (log ratio)” value was -4.43.

Take G71A G93U: the “polymerase ribozyme fitness (log ratio)” value was -1.52. Under G71A G93A stands -1.39; under G71C C85A G117A, -2.67. Under G71C A121G stands 0.226. Under G71C C88U A90C C115G stands -4.94. Regarding C72A C123A U126G, the “polymerase ribozyme fitness (log ratio)” value was -0.782. Under G71U C97U stands -0.285. Under G71U U92C stands -1.11; under C72G C86G U109A C114A G120C, -5.75. Under C70U C115U stands -1.84. Take C72G C88U A91C A118U G122U: the “polymerase ribozyme fitness (log ratio)” value was -2.76. C72A U87C C88G U116G: the “polymerase ribozyme fitness (log ratio)” value was -3.6. Under C70U U78C C86G stands -0.947.

For the variant C72A A111C C124A G127A, the “polymerase ribozyme fitness (log ratio)” value turned out to be 0.235. Under G71C U87G C98U G113C stands -4.17; under C70U G120A, 0.259; under C70U G120C, 0.206. Under G71C C80U stands -4.42; under G71C A108G, -2.34; under C70U G113A C123A, -2.31.
